Assay results published in ChEMBL document CHEMBL2396531, “Hybrid molecule from O2-(2,4-dinitrophenyl)diazeniumdiolate and oleanolic acid: a glutathione S-transferase π-activated nitric oxide prodrug with selective anti-human hepatocellular carcinoma activity and improved stability” (J Med Chem, 2013).

Substrate: [H][C@]12CC=C3[C@]4([H])CC(C)(C)CC[C@]4(C(=O)O[C@@H]4O[C@H](CO)[C@H](O)[C@H](O)[C@H]4O)CC[C@@]3(C)[C@]1(C)CC[C@@]1([H])C(C)(C)[C@@H](OC(=O)CN3CCN(c4cc(O/N=[N+](/[O-])N(C)CCO)c([N+](=O)[O-])cc4[N+](=O)[O-])CC3)CC[C@]21C
Test: Activity at GSTpi (unknown origin) by Michaelis-Menten equation
Type: ADME, Homo sapiens

B1: Glutathione S-transferase P (Homo sapiens) (protein)
chain: MPPYTVVYFPVRGRCAALRMLLADQGQSWKEEVVTVETWQEGSLKASCLYGQLPKFQDGDLTLYQSNTILRHLGRTLGLYGKDQQEAALVDMVNDGVEDLRCKYISLIYTNYEAGKDDYVKALPGQLKPFETLLSQNQGGKTFIVGDQISFADYNLLDLLLIHEVLAPGCLDAFPLLSAYVGRLSARPKLKAFLASPEYVNLPINGNGKQ
Km: 342 µM | Vmax: 15.1 µmol/min | kcat: 6.95 s⁻¹ | kcat/Km: 20100 M⁻¹ s⁻¹
